Tests used:
[1] = target: the molecule itself; experiment: AUC; sedimentation velocity; 0.5 mg/ml in 20 mM phosphate buffer pH 7.4, 18,000 rpm, 20 °C, An50Ti rotor; SEDFIT (Lamm equation); self-association into large oligomers
[2] = target: the molecule itself; experiment: dynamic light scattering; 1 mg/ml in PBS pH 7.4, filtered through 0.22 μm, 25 °C; hydrodynamic radius; self-association

B1: α-chain of human clusterin (α-Clu), recombinant (domain or fragment, UniProt P10909 23-227, looked up)
chain: DQTVSDNELQEMSNQGSKYVNKEIQNAVNGVKQIKTLIEKTNEERKTLLSNLEEAKKKKEDALNETRESETKLKELPGVCNETMMALWEECKPCLKQTCMKFYARVCRSGSGLVGRQLEEFLNQSSPFYFWMNGDRIDSLLENDRQQTHMLDVMQDHFSRASSIIDELFQDRFFTREPQDTYHYLPFSLPHRRPHFFFPKSRIVR
notes: The printed primers encode M-DQTVSD... at the start and ...RIVR-stop at the end; Printed theoretical subunit mass: 24 kDa; The NdeI site of the forward primer adds an initiator Met before D23; Not glycosylated (bacterial). cDNA came from IMR32 human neuroblastoma cells; also called α-clusterin
[1]
  stoichiometry N: ~60 subunits per oligomer

B2: β-chain of human clusterin (β-Clu), recombinant (domain or fragment, UniProt P10909 228-449, looked up)
chain: SLMPFSPYEPLNFHAMFQPFLEMIHEAQQAMDIHFHSPAFQHPPTEFIREGDDDRTVCREIRHNSTGCLRMKDQCDKCREILSVDCSTNNPSQAKLRRELDESLQVAERLTRKYNELLKSYQWKMLNTSSLLEQLNEQFNWVSRLANLTQGEDQYYLRVTTVASHTSDSDVPSGVTEVVVKLFDSDPITVTVPVEVSRKNPKFMETVAEKALQEYRKKHREE
notes: The printed primers encode M-SLMPFSP... at the start and ...HREE-stop at the end; The NdeI site of the forward primer adds an initiator Met before S228; Not glycosylated (bacterial). cDNA came from IMR32 human neuroblastoma cells; also called β-clusterin
[2]
  binding result: binds

Source: publication PMC5264606, “Clusterin: full-length protein and one of its chains show opposing effects on cellular lipid accumulation” (Scientific Reports, 2017)
